# From patent US20190025332A1 (Novo Nordisk, published 2019)
# B1: mGFRAL(ECR)-Fab-HPC4 (receptor)
# chain: QTNDCAHLIQKCLIDANGCEQSWRSMEDTCLTPGDSCKINNSLHCNLSIQALVEKNFQFKECLCMDDLHCTVNKLFGKKCTNKTDNMEKDNKDKWNLTTTPFYHGFKQMQSCLEVTEACVGDVVCNAQLALYLKACSANGNLCDVKHCQAAIRFFYQNMPFNTAQMLAFCDCAQSDIPCQQSKETLHSKPCALNIVPPPTCLSVIHTCRNDELCRTHYRTFQTECWPHITGKCHEDETCISMLGKQDLTCSGSESCRAAFLGTFGTVLQVPCACRGVTQAEEHVCMIFQHMLHSKSCFNYPTPNVKDISSYEKKNSKEITLTGFNSFFNGGGGSGGGGSDVVMTQTPLSLPVSLGDQASISCRSSQSLLHSNGNTYLHWYLQKPGQSPKLLIYKVSNRFSGVPDRFSGSGSGTDFTLKISRVEAEDLGVYFCSQSTHVPWTFGGGTKLEIKRADAAPTVSIFPPSSEQLTSGGASVVCFLNNFYPKDINVKWKIDGSERQNGVLNSWTDQDSKDSTYSMSSTLTLTKDEYERHNSYTCEATHKTSTSPIVKSFNRNEC
# heavy: EVQIQESGPSLVKPSQTLSLTCSVSGDSITSGYWNWIRKFPGHKIEYMGTISYSGDTYYNPSLKSRISITRDTSKNQYYLHLNSVTTEDTATYYCARYGSYVFDYWGQGTTLTVSSAKTTPPSVYPLAPGSAAQTNSMVTLGCLVKGYFPEPVTVTWNSGSLSSGVHTFPAVLQSDLYTLSSSVTVPSSTWPSETVTCNVAHPASSTKVDKKIVPRDCGGGGSEDQVDPRLIDGK
# notes: Soluble fusion of the mouse GFRAL (isoform 1) extracellular region with an anti-TNP Fab; also called mGFRA(ECR)L-Fab-HPC4
# B2: hGFRAL(ECR)-Fab-HPC4 (receptor)
# chain: QTNNCTYLREQCLRDANGCKHAWRVMEDACNDSDPGDPCKMRNSSYCNLSIQYLVESNFQFKECLCTDDFYCTVNKLLGKKCINKSDNVKEDKFKWNLTTRSHHGFKGMWSCLEVAEACVGDVVCNAQLASYLKACSANGNPCDLKQCQAAIRFFYQNIPFNIAQMLAFCDCAQSDIPCQQSKEALHSKTCAVNMVPPPTCLSVIRSCQNDELCRRHYRTFQSKCWQRVTRKCHEDENCISTLSKQDLTCSGSDDCKAAYIDILGTVLQVQCTCRTITQSEESLCKIFQHMLHRKSCFNYPTLSNVKGMALYTRKHANKITLTGFHSPFNGEGGGGSGGGGSDVVMTQTPLSLPVSLGDQASISCRSSQSLLHSNGNTYLHWYLQKPGQSPKLLIYKVSNRFSGVPDRFSGSGSGTDFTLKISRVEAEDLGVYFCSQSTHVPWTFGGGTKLEIKRADAAPTVSIFPPSSEQLTSGGASVVCFLNNFYPKDINVKWKIDGSERQNGVLNSWTDQDSKDSTYSMSSTLTLTKDEYERHNSYTCEATHKTSTSPIVKSFNRNEC
# heavy: B1 heavy
# Assays:
# hNRTN [1] = target: T1, hNRTN (human, UniProt Q99748 96-197); assay: SPR; ligand as analyte over immobilised mGFRAL(ECR)-Fab-HPC4
# T1 sequence (looked up): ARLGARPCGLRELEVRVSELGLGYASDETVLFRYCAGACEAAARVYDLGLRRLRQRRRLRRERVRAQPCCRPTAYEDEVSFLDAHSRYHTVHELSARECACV
# Excerpt: (§1) For SPR-based binding assay, wtMIC-1 as well as hGDNF, hNRTN, hARTN and hPSPN, at various concentrations were run as flow-through analytes. hGFRAL(ECR)-Fab and mGFRAL(ECR)-Fab were immobilized as ligand. […] FCRL2-Fab-HPC4 (Ctrl.-Fab-HPC4) was used as control. Please see FIG. 5 and Table 4.
# hPSPN [2] = target: T2, hPSPN (human, UniProt O60542 61-156, limits assumed); assay: as above
# T2 sequence (looked up): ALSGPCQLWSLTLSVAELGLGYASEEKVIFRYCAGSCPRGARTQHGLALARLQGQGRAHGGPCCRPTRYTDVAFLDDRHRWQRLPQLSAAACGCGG
# Excerpt: as §1
# hGDNF [3] = target: T3, hGDNF (human, UniProt P39905 78-211); assay: as above
# T3 sequence (looked up): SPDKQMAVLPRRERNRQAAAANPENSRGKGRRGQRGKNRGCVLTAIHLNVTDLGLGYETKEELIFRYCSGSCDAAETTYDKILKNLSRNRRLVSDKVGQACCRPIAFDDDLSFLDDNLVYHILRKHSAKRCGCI
# Excerpt: as §1
# hARTN [4] = target: T4, hARTN (human, UniProt Q5T4W7 108-220); assay: as above
# T4 sequence (looked up): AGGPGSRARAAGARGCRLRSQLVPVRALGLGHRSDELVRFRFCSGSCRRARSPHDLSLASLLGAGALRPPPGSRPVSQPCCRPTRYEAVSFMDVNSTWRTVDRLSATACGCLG
# Excerpt: as §1
# wild type human MIC-1 [5] = target: T5, wild type human MIC-1 (human, UniProt Q99988 197-308); assay: as above
# T5 construct: also called wtMIC-1; hMIC-1
# T5 sequence: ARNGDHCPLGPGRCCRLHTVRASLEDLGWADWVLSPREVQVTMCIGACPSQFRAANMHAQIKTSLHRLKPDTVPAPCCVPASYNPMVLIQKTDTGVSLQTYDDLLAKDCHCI
# Excerpt: as §1
# hNRTN [6] = target: T1, hNRTN; assay: SPR; ligand as analyte over immobilised hGFRAL(ECR)-Fab-HPC4
# Excerpt: as §1
# hPSPN [7] = target: T2, hPSPN; assay: as above
# Excerpt: as §1
# hGDNF [8] = target: T3, hGDNF; assay: as above
# Excerpt: as §1
# hARTN [9] = target: T4, hARTN; assay: as above
# Excerpt: as §1
# wild type human MIC-1 [10] = target: T5, wild type human MIC-1; assay: SPR; GFRAL fragment as analyte over immobilised wtMIC-1; relative to hGFRAL(ECR) set as 100%
# Description: MIC-1 interactions with soluble GFRAL fragments were assessed by SPR-based binding assay. A Biacore® 4000 (GE Healthcare, Piscataway, N.J., USA) instrument was used for SPR-based binding assay. The assays were performed at 25° C. at flow rates of 30 μL/minute in 1× HBS-P running buffer (BR-1006-71, GE Healthcare, Piscataway, N.J., USA). Purified GFRAL fragments at various concentrations were run as flow-through analyte and wtMIC-1 was immobilized as ligand. Please see FIG. 6 and Table 5.
Binder,binding result (hNRTN [1]),binding result (hPSPN [2]),binding result (hGDNF [3]),binding result (hARTN [4]),binding result (wild type human MIC-1 [5]),binding result (hNRTN [6]),binding result (hPSPN [7]),binding result (hGDNF [8]),binding result (hARTN [9]),% of Binding (wild type human MIC-1 [10])
B1,no binding,no binding,no binding,no binding,binds,,,,,
B2,,,,,,no binding,no binding,no binding,no binding,100%
